# Reference: patent publication US20250074943A1 (Amgen, published 2025)
# Bridge positions count the residues as written; N and C are the ends. Primed or numbered codes have the meaning given here. Ends that are not written are not given here. K(PEG4-DBCO-FEA) = Lys whose side chain carries PEG4-DBCO conjugated to fluoroethylazide (FEA); Ttds″ = trioxatridecan-succinamic acid linker
# T1: recombinant DLL3 ectodomain (rhDLL3-Fc) (human, UniProt Q9NYJ7 27-492, biotinylated (NHS-LC-LC-biotin) in the BLI and SPR assays)
# T1 construct: also called rDLL3-Fc; recombinant human DLL3 (rDLL3); not shown: Fc part
# T1 sequence: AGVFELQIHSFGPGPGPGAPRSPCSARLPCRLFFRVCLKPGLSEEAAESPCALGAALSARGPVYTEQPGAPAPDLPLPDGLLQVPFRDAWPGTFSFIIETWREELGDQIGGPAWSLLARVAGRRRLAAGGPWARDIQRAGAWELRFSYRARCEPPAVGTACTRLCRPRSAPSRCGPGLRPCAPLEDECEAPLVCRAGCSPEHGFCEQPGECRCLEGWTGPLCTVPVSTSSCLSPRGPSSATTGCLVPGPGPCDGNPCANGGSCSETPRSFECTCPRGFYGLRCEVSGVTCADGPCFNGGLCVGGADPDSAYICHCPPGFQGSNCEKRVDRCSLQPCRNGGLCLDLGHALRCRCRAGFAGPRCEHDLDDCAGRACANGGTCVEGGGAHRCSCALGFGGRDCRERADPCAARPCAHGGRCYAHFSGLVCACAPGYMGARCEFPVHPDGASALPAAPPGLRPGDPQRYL
# T2: human DLL3 expressed on the surface of cells (human, UniProt Q9NYJ7 27-618)
# T2 construct: Stably transfected CHO or HEK293 cells; also called huDLL3; hDLL3
# T2 sequence: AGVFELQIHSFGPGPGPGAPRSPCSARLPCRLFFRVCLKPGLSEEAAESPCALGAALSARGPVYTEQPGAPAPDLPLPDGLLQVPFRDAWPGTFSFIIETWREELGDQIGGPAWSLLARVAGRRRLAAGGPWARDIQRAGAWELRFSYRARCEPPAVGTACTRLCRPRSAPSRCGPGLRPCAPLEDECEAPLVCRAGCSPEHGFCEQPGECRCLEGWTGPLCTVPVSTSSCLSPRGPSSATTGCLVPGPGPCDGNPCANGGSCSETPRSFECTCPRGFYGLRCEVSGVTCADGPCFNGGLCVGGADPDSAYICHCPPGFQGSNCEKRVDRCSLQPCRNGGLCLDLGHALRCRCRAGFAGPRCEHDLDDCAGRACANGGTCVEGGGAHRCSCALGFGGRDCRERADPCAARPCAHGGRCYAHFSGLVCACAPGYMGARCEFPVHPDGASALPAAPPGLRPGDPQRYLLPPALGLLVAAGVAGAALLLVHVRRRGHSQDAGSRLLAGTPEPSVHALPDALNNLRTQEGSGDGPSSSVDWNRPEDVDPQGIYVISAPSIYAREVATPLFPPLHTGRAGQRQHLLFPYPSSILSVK
# B1: PepSP1583 (peptide)
# peptide: Ac-AETVEFWWCNGNSENWTCTWGG-{Ttds″-K(Ttds-Ttds-PEG3)}
# modifications: disulfide 9-18 (inferred); not fully specified; printed as [Ac-AETVEFWWCNGNSENWTCTW-GG-Ttds-K(Ttds-Ttds-PEG3)]2-PEG4-DBCO-; also: dimer linked via PEG4-DBCO-FEA
# notes: also called dimeric FEA derivative of PepSP1489
# B2: PepSP1582 (peptide)
# peptide: Ac-AETVEFWWCNGNSENWTCTWGG-{Ttds″-K(PEG4-PEG3)}
# modifications: disulfide 9-18 (inferred); also: dimer linked via PEG4-DBCO-FEA
# notes: also called dimeric FEA derivative of PepSP1488
# B3: PepSP1538 (peptide)
# peptide: Ac-AETVEFWWCNGNSENWTCTWGG-{Ttds″-K(PEG4-DBCO-FEA)-NH2}
# modifications: disulfide 9-18 (inferred)
# notes: also called monomeric Fluoroethylazide (FEA) derivative of PepSP1462
# B4: PepSP1581 (peptide)
# peptide: Ac-AETVEFWWCNGNSENWTCTWGG-{Ttds″-K(PEG3)}
# modifications: disulfide 9-18 (inferred); also: dimer linked via PEG4-DBCO-FEA
# notes: also called dimeric FEA derivative of PepSP1487
# Target: T1, recombinant DLL3 ectodomain (rhDLL3-Fc)
# Assay: phage ELISA on rDLL3-Fc
# Procedure: The pools of phages obtained after each round of selection were tested by Phage-ELISA for their binding to rDLL3-Fc and counter-screened on hIgG-Fc. Briefly, proteins were immobilized on NUNC-Maxisorp ELISA plates. Then the plates were washed and blocked. 100 μl of pre-blocked phages were added to the blocked plate and incubated for 1 hr at room temperature. Anti-M13 HRP conjugated mAb were added and the plates were read on a Multiskan Ascent (Thermo) Elisa reader at A370 nm after the addition of TMB (Sigma).
row,Binder,binding result
1,"AETVEFMRCYPWWYGPMCVR (not fully specified (bridges); cysteine pairing not given here, not shown: M13 pIII coat protein) [SEQ ID NO 63]",binds
2,"AETVEFETCWYLYGREWCVG (not fully specified (bridges); cysteine pairing not given here, not shown: M13 pIII coat protein) [SEQ ID NO 62]",binds
3,"AETVEFYGCSVTWGGYTCTW (disulfide 9-18 (inferred); not fully specified (C-terminus), not shown: M13 pIII coat protein) [SEQ ID NO 74]",binds
4,"AETVEFWSCVVYGDNWTCSS (not fully specified (bridges); cysteine pairing not given here, not shown: M13 pIII coat protein) [SEQ ID NO 70]",binds
5,"AETVEFWTCWTVYGKSSCWD (not fully specified (bridges); cysteine pairing not given here, not shown: M13 pIII coat protein) [SEQ ID NO 65]",binds
6,AETVEFYGCSVNADGWTCSW (not shown: M13 pIII coat protein) [SEQ ID NO 58],binds
7,"AETVEFWSCQLGSGWWTCAW (not fully specified (bridges); cysteine pairing not given here, not shown: M13 pIII coat protein) [SEQ ID NO 71]",binds
8,"AETVEFYNCWYKMGWYVCWS (disulfide 9-18 (inferred); not fully specified (C-terminus), not shown: M13 pIII coat protein) [SEQ ID NO 75]",binds
9,"AETVEFWTCWETTEGYGCNW (not fully specified (bridges); cysteine pairing not given here, not shown: M13 pIII coat protein) [SEQ ID NO 72]",binds
10,AETVEFYGCYGEQEQWTCLW (not shown: M13 pIII coat protein) [SEQ ID NO 59],binds
11,"AETVEFWGCNLDWYGWTCWW (not fully specified (bridges); cysteine pairing not given here, not shown: M13 pIII coat protein) [SEQ ID NO 69]",binds
12,AETVEFYGCWGNYNDYTCSW (not shown: M13 pIII coat protein) [SEQ ID NO 61],binds
13,AETVEFYGCQYYGWDYTCAW (not shown: M13 pIII coat protein) [SEQ ID NO 60],binds
14,"AETVEFYGCWWDAYGSTCTW (not fully specified (bridges); cysteine pairing not given here, not shown: M13 pIII coat protein) [SEQ ID NO 66]",binds
15,"AETVEFWGCTGGAWEYTCWW (disulfide 9-18 (inferred); not fully specified (C-terminus), not shown: M13 pIII coat protein) [SEQ ID NO 73]",binds
16,"AETVEFYGCDLWKGWTVCGY (not fully specified (bridges); cysteine pairing not given here, not shown: M13 pIII coat protein) [SEQ ID NO 67]",binds
17,"AETVEFRYCTHTQTYVQCQD (not fully specified (bridges); cysteine pairing not given here, not shown: M13 pIII coat protein) [SEQ ID NO 68]",binds
18,"AETVEFCRAYSNWFYIC (disulfide 7-17 (inferred); not fully specified (C-terminus), not shown: M13 pIII coat protein) [SEQ ID NO 76]",binds
19,"AETVEFWGCLGMGYDRTCWW (not fully specified (bridges); cysteine pairing not given here, not shown: M13 pIII coat protein) [SEQ ID NO 64]",binds

# Target: T2, human DLL3 expressed on the surface of …
# Assay: phage cell ELISA/FACS on DLL3-expressing cells;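 also: phages incubated 1 h at room temperature with cells overexpressing human DLL3, read by flow cytometry fluorescence, then fixed-cell ELISA with anti-M13-HRP at A370 nm, parental cells alongside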
# Procedure: The pools of phages were also screened for their binding to cells overexpressing human DLL3 on their surface. Cells were detached, counted and re-suspended at 1.8×10⁶ cell/ml in FACS buffer containing 2% FBS. Pre-blocked phages were then added to the cells and incubated for 1 hr at room temperature. […] Cells were then washed and re-suspended into FACS buffer. Fluorescence was acquired using a flow cytometer (FACS Canto/Becton Dickinson).
# Phage clones with signal higher than four-fold above the background were further tested for their binding to DLL3 on the surface of cells expressing DLL3 by cell ELISA. Briefly, parental cells and cells overexpressing DLL3 were plated on 96 well plate the day before the assay. The cells were then fixed and washed before the addition of pre-blocked phages as previously described. The cells were then washed and anti-M13-HRP was added. The signal was measured using a Multiskan Ascent (Thermo) ELISA reader at A370 nm.
row,Binder,binding result
1,"AETVEFMRCYPWWYGPMCVR (not fully specified (bridges); cysteine pairing not given here, not shown: M13 pIII coat protein) [SEQ ID NO 63]",binds
2,"AETVEFETCWYLYGREWCVG (not fully specified (bridges); cysteine pairing not given here, not shown: M13 pIII coat protein) [SEQ ID NO 62]",binds
3,"AETVEFYGCSVTWGGYTCTW (disulfide 9-18 (inferred); not fully specified (C-terminus), not shown: M13 pIII coat protein) [SEQ ID NO 74]",binds
4,"AETVEFWSCVVYGDNWTCSS (not fully specified (bridges); cysteine pairing not given here, not shown: M13 pIII coat protein) [SEQ ID NO 70]",binds
5,"AETVEFWTCWTVYGKSSCWD (not fully specified (bridges); cysteine pairing not given here, not shown: M13 pIII coat protein) [SEQ ID NO 65]",binds
6,AETVEFYGCSVNADGWTCSW (not shown: M13 pIII coat protein) [SEQ ID NO 58],binds
7,"AETVEFWSCQLGSGWWTCAW (not fully specified (bridges); cysteine pairing not given here, not shown: M13 pIII coat protein) [SEQ ID NO 71]",binds
8,"AETVEFYNCWYKMGWYVCWS (disulfide 9-18 (inferred); not fully specified (C-terminus), not shown: M13 pIII coat protein) [SEQ ID NO 75]",binds
9,"AETVEFWTCWETTEGYGCNW (not fully specified (bridges); cysteine pairing not given here, not shown: M13 pIII coat protein) [SEQ ID NO 72]",binds
10,AETVEFYGCYGEQEQWTCLW (not shown: M13 pIII coat protein) [SEQ ID NO 59],binds
11,"AETVEFWGCNLDWYGWTCWW (not fully specified (bridges); cysteine pairing not given here, not shown: M13 pIII coat protein) [SEQ ID NO 69]",binds
12,AETVEFYGCWGNYNDYTCSW (not shown: M13 pIII coat protein) [SEQ ID NO 61],binds
13,AETVEFYGCQYYGWDYTCAW (not shown: M13 pIII coat protein) [SEQ ID NO 60],binds
14,"AETVEFYGCWWDAYGSTCTW (not fully specified (bridges); cysteine pairing not given here, not shown: M13 pIII coat protein) [SEQ ID NO 66]",binds
15,"AETVEFWGCTGGAWEYTCWW (disulfide 9-18 (inferred); not fully specified (C-terminus), not shown: M13 pIII coat protein) [SEQ ID NO 73]",binds
16,"AETVEFYGCDLWKGWTVCGY (not fully specified (bridges); cysteine pairing not given here, not shown: M13 pIII coat protein) [SEQ ID NO 67]",binds
17,"AETVEFRYCTHTQTYVQCQD (not fully specified (bridges); cysteine pairing not given here, not shown: M13 pIII coat protein) [SEQ ID NO 68]",binds
18,"AETVEFCRAYSNWFYIC (disulfide 7-17 (inferred); not fully specified (C-terminus), not shown: M13 pIII coat protein) [SEQ ID NO 76]",binds
19,"AETVEFWGCLGMGYDRTCWW (not fully specified (bridges); cysteine pairing not given here, not shown: M13 pIII coat protein) [SEQ ID NO 64]",binds

# Target: T1, recombinant DLL3 ectodomain (rhDLL3-Fc)
# Assay: SPR (Biacore), biotinylated rhDLL3-Fc on SA chip
Binder,Kd,koff,kon
"Ac-AETVEFWWCNGNSENWTCTWGG-{Ttds″-K(Ttds-Ttds-PEG3)} (disulfide 9-18 (inferred); also: dimer linked via PEG4-DBCO, also called PspSP1489) [PepSP1489]",3.3 nM,0.00037 s⁻¹,110000 M⁻¹ s⁻¹
"Ac-AETVEFWWCNGNSENWTCTWGG-{Ttds″-K(PEG3)} (disulfide 9-18 (inferred); also: dimer of two copies, carries PEG4-DBCO, also called PspSP1487) [PepSP1487]",5.5 nM,0.00042 s⁻¹,76000 M⁻¹ s⁻¹
"Ac-AETVEFWWCNGNSENWTCTWGG-{Ttds-K(PEG4-DBCO)-NH2} (disulfide 9-18 (inferred), also called PspSP1462) [PepSP1462]",6.3 nM,0.0014 s⁻¹,230000 M⁻¹ s⁻¹
"Ac-AETVEFWWCNGNSENWTCTWGG-{Ttds″-K(PEG4-PEG3)} (disulfide 9-18 (inferred); also: dimer linked via PEG4-DBCO, also called PspSP1488) [PepSP1488]",2.6 nM,0.00031 s⁻¹,120000 M⁻¹ s⁻¹

# Target: T1, recombinant DLL3 ectodomain (rhDLL3-Fc)
# Assay: SPR off-rate, single point (300 nM peptide), biotinylated rhDLL3-Fc on SA chip
# Procedure: The off-rate screening of the peptides was done using a Biacore T200 instrument (Cytiva, Sweden). […] Peptides were diluted at 300 nM in PBS-P+1× buffer (Cytiva, Sweden) supplemented with 1% DMSO and 0.1% BSA, then injected over the ligand for five minutes at 30 μl/min, finally dissociation allowed for 1 h. Sensorgrams were analyzed by Biacore T200 Evaluation Software 3.0 (Cytiva, Sweden): specific binding was obtained by subtracting unspecific binding to naked biosensors and a zero analyte concentration made of binding assay buffer (double referencing). Kinetic parameters of koff were measured using a global fitting according to 1:1 Langmuir binding isotherm equation.
row,Binder,koff
1,B1,3.2e-05 s⁻¹
2,B2,3.6e-05 s⁻¹
3,B3,0.0039 s⁻¹
4,B4,3.4e-05 s⁻¹
